We go through 1 substance from patent US20240150411A1.

For test [1], the target named is DS-Cav1-foldon-I53-50 nanostructure, 100% valency (respiratory syncytial virus (RSV)). The test can be described thus: SPR, D25 immobilised, antigen at 50 nM heat-stressed at 70 °C for 1 h (FIG. 10). For orientation: SPR reads the build-up and loss of mass on a sensor chip optically.
Test [2] addresses DS-Cav1-foldon-I53-50A trimer (respiratory syncytial virus (RSV)). Described as above.

With D25 monoclonal antibody, the percent of binding signal retained after 70 °C for 1 hour in test [1] was found to be 80%; in test [2], 50%.
